The results in this text go back to publication PMC3298681 (Molecular Cell, 2011).

The term stoichiometry N denotes the number of molecules, sites or subunits per partner or assembly.

This data set concerns the molecule itself.

B1: DgcB (CC1850), purified (enzyme, Caulobacter crescentus, UniProt Q9A776 1-353, looked up)
chain: MSDVETTLRGPEAYKIASRALELMERHQVWPTALNFELWTHYVADPNGALARELTRLISLGEPMTELVSEELAATFLPKARLNEQIRDAGDILSKELEAVSKAIQNAQKSNAAFGQELAGASKSLDTHTDVASIKAVVGSIAEATRRVHKENQSLEARLADSTAEVERLREHLEQVRRDATTDGLTNLANRKAFDDELDRACAEAEEGGTTICLAVLDIDHFKGFNDTWGHQTGDQVIRYVASVIGRVAAPPRFAARYGGEEFAMIFPREAASVVATTLEEIRVEVSSRMLKRRSTNEDLGAITVSSGFAERKPGESGHSVMERADAALYASKRGGRNRVTAAESMPGAANAA
For B1, the “stoichiometry N” value is 2.
